Measured values published in US8840891 (RSR, dated 2014).
Like-named read-outs stand apart in the source and are kept apart here.

Columns and labels:
[1] = target: TSHR with His105 mutated to Alanine expressed on CHO cells (human) (UniProt P16473); experiment: cell-based or functional assay
[2] = target: wild type human TSHR (thyrotropin receptor) expressed on CHO cells (human) (UniProt P16473); experiment: cell-based or functional assay
[3] = target: TSHR with Thr257 mutated to Alanine expressed on CHO cells (human) (UniProt P16473); experiment: cell-based or functional assay
[4] = target: wild type human TSHR (thyrotropin receptor) expressed on CHO cells (human) (UniProt P16473); experiment: cell-based or functional assay; remark: listed apart in the source
[5] = target: TSHR with Asp203 mutated to Alanine expressed on CHO cells (human) (UniProt P16473); experiment: cell-based or functional assay
[6] = target: TSHR coated onto tubes (TSHR coated tubes) (human) (UniProt P16473); experiment: Scatchard analysis, 125I-5C9 IgG and unlabelled 5C9 IgG in TSHR coated tubes

Cyclic AMP produced; 5C9 0.01 µg/mL + TSH (fmol/cell well) [1]: 24200 | Cyclic AMP produced; 5C9 0.1 µg/mL + TSH (fmol/cell well) [1]: 2870 | Cyclic AMP produced; 5C9 1.0 µg/mL + TSH (fmol/cell well) [1]: 561 | Cyclic AMP produced; 5C9 10 µg/mL + TSH (fmol/cell well) [1]: 434 | Cyclic AMP produced; 5C9 100 µg/mL + TSH (fmol/cell well) [1]: 134 | Cyclic AMP produced; 5C9 100 µg/mL only (fmol/cell well) [1]: 520 | Mutated/wild type (%); 5C9 0.01 µg/mL + TSH [1]: 145% | Mutated/wild type (%); 5C9 0.1 µg/mL + TSH [1]: 82% | Mutated/wild type (%); 5C9 1.0 µg/mL + TSH [1]: 124% | Mutated/wild type (%); 5C9 10 µg/mL + TSH [1]: 150% | Mutated/wild type (%); 5C9 100 µg/mL + TSH [1]: 60% | Mutated/wild type (%); 5C9 100 µg/mL only [1]: 222% | Cyclic AMP produced; 5C9 0.01 µg/mL + TSH (fmol/cell well) [2]: 18700 | Cyclic AMP produced; 5C9 0.1 µg/mL + TSH (fmol/cell well) [2]: 6140 | Cyclic AMP produced; 5C9 1.0 µg/mL + TSH (fmol/cell well) [2]: 1400 | Cyclic AMP produced; 5C9 10 µg/mL + TSH (fmol/cell well) [2]: 638 | Cyclic AMP produced; 5C9 100 µg/mL + TSH (fmol/cell well) [2]: 591 | Cyclic AMP produced; 5C9 100 µg/mL only (fmol/cell well) [2]: 566 | Cyclic AMP produced; 5C9 0.01 µg/mL + TSH (fmol/cell well) [3]: 21100 | Cyclic AMP produced; 5C9 0.1 µg/mL + TSH (fmol/cell well) [3]: 7940 | Cyclic AMP produced; 5C9 1.0 µg/mL + TSH (fmol/cell well) [3]: 1590 | Cyclic AMP produced; 5C9 10 µg/mL + TSH (fmol/cell well) [3]: 972 | Cyclic AMP produced; 5C9 100 µg/mL + TSH (fmol/cell well) [3]: 611 | Cyclic AMP produced; 5C9 100 µg/mL only (fmol/cell well) [3]: 637 | Mutated/wild type (%); 5C9 0.01 µg/mL + TSH [3]: 113% | Mutated/wild type (%); 5C9 0.1 µg/mL + TSH [3]: 129% | Mutated/wild type (%); 5C9 1.0 µg/mL + TSH [3]: 114% | Mutated/wild type (%); 5C9 10 µg/mL + TSH [3]: 152% | Mutated/wild type (%); 5C9 100 µg/mL + TSH [3]: 103% | Mutated/wild type (%); 5C9 100 µg/mL only [3]: 111% | Cyclic AMP produced; 5C9 0.01 µg/mL + TSH (fmol/cell well) [4]: 15500 | Cyclic AMP produced; 5C9 0.1 µg/mL + TSH (fmol/cell well) [4]: 4440 | Cyclic AMP produced; 5C9 1.0 µg/mL + TSH (fmol/cell well) [4]: 1350 | Cyclic AMP produced; 5C9 10 µg/mL + TSH (fmol/cell well) [4]: 807 | Cyclic AMP produced; 5C9 100 µg/mL + TSH (fmol/cell well) [4]: 367 | Cyclic AMP produced; 5C9 100 µg/mL only (fmol/cell well) [4]: 330 | Cyclic AMP produced; 5C9 0.01 µg/mL + TSH (fmol/cell well) [5]: 14700 | Cyclic AMP produced; 5C9 0.1 µg/mL + TSH (fmol/cell well) [5]: 13100 | Cyclic AMP produced; 5C9 1.0 µg/mL + TSH (fmol/cell well) [5]: 14700 | Cyclic AMP produced; 5C9 10 µg/mL + TSH (fmol/cell well) [5]: 12600 | Cyclic AMP produced; 5C9 100 µg/mL + TSH (fmol/cell well) [5]: 12700 | Cyclic AMP produced; 5C9 100 µg/mL only (fmol/cell well) [5]: 1370 | Mutated/wild type (%); 5C9 0.01 µg/mL + TSH [5]: 95% | Mutated/wild type (%); 5C9 0.1 µg/mL + TSH [5]: 296% | Mutated/wild type (%); 5C9 1.0 µg/mL + TSH [5]: 1090% | Mutated/wild type (%); 5C9 10 µg/mL + TSH [5]: 1570% | Mutated/wild type (%); 5C9 100 µg/mL + TSH [5]: 3450% | Mutated/wild type (%); 5C9 100 µg/mL only [5]: 415% | Ka [6]: 4e+10 M⁻¹
B1: 5C9 IgG (human monoclonal autoantibody to the TSHR) (antibody, from another filing, V domains shown)
VH: EVQLVESGGGLIQPGGSLRLSCAASGFTVSSNYMSWVRQAPGKGLEWVSVTYSGGSTSYADSVKGRFTISRDNSKNTLYLQMNSLRAEDTAVYYCARGGRYCSSISCYARSGCDYWGQGTLVTVSS
VL: AIQMTQSPSSLSASVGDRVTITCRASQSISNYLNWYQQKPGKAPKLLIYAASSLQSGVPSRFSGSGSGTDFTLTISSLQPEDFATYYCQQSYSSPSTTFGQGTKLEIK
